Results as given in US20030008355A1 (published 2003).
Values belong to the molecule of their own block, whether it stands above or below them.

Columns and labels:
[1] = biological target: carcinoembryonic antigen (CEA) (UniProt P06731); experiment: acid-wash EIA on CEA-coated plates, citrate pH 2.5, 1 h 37 C
[2] = biological target: T1, carcinoembryonic antigen (CEA) (UniProt P06731 35-685, limits assumed); experiment: acid-wash EIA on CEA-coated plates, citrate pH 2.0, 1 h 37 C
T1 construct: Antigen coated on microtitre plates
T1 sequence (looked up): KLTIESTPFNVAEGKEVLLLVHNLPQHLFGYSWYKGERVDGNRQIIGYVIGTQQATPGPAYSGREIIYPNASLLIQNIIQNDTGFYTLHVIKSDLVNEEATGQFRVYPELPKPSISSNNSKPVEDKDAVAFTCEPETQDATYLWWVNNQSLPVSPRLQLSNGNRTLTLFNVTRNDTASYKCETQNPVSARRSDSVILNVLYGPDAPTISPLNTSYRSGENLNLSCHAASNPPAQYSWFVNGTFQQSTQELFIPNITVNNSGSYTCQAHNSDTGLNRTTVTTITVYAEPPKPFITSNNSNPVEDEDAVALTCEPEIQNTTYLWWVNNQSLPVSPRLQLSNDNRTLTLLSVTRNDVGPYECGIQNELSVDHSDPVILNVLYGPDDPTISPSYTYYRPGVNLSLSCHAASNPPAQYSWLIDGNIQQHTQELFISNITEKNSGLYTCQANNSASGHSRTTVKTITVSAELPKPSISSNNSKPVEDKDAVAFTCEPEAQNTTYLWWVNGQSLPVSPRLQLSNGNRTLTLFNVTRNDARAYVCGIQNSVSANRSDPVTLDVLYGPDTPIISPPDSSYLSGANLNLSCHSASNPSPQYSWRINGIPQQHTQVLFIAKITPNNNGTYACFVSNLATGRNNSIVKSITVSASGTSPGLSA
Experimental: (§1) Carcinoembryonic antigen (CEA)-coated microtitre plates were prepared as described previously. Single-chain Fv samples (6H9) were diluted to a range of concentrations between 1 ng/ml and 100 ng/ml in PBS at pH 7.2 containing 1% bovine serum albumin (BSA). 100 μl samples were added to the microtitre plate wells and incubated for 1 hour at 37° C. The plates were then washed, 200 μl per well of citrate added, and the plates incubated for 1 hour at 37° C. In this case, the acid preparations were made using a stock solution of 100 mM citrate diluted to pH values of 4.0, 3.5, 3.0, 2.5 and 2.0 in the reaction mixture. PBS at pH 7.2 was used as a reference control. The plates were then washed and 100 μl per well of mouse anti-tetra-histidine antibody (Qiagen) (100 ng/ml diluted in PBS at pH 7.2 with 1% BSA) added and incubated for 1 hour at 37° C. […] The plates were then washed, treated with PNPP as described previously and the absorbance measured using a spectrophotometer at 405 nm.
(§2) As a control for acid resistance, sFv samples were incubated with PBS at pH 7.2 to generate an EIA response curve for the SFv samples. In the linear region, a concentration of 10-20 ng/ml of the SFv sample gave an absorbance (A₄₀₅) of 1.0-1.5 and was therefore used to determine the amount of antibody bound in the acid washed samples as a percentage of the amount bound in the reference sample.

[3] = biological target: T1, carcinoembryonic antigen (CEA); experiment: acid-wash EIA on CEA-coated plates, citrate pH 2.5, 1 h 37 C
Experimental: as §1, §2

[4] = biological target: T1, carcinoembryonic antigen (CEA); experiment: acid-wash EIA on CEA-coated plates, citrate pH 3.5, 1 h 37 C
Experimental: as §1, §2

[5] = biological target: T1, carcinoembryonic antigen (CEA); experiment: acid-wash EIA on CEA-coated plates, HCl pH 2, 1 h 37 C, against standard EIA
Experimental: Maxisorb assay plates (NUNC) were coated with CEA (0.4 μg/ml in phosphate-buffered saline at pH 7.2), 100 μl per well and left overnight at 4° C. The plates were then washed three times using phosphate buffered saline at pH 7.2 with 0.01% Tween 20 detergent. Any remaining reactive sites on the plates were blocked by the addition of 200 μl per well of 0.2% fat-free milk protein in PBS at pH 7.2 at 37° C. for ½ hour. The plates were then washed in PBS as described above and 45 μl of the antibody samples were added to the wells of the plates. The samples were incubated for one hour at 37° C. and then washed as described previously. Bound antibody was detected using alkaline phosphatase-conjugated donkey anti-sheep antibody (Sigma A5187 diluted 1/5000 in PBS at pH 7.2 with 1% BSA). The plates were then washed and 100 μl per well of PNPP (Sigma N2770) solution was added. Absorbance was measured using a spectrophotometer at 405 nm with phosphate buffered saline as a control.
Coating and binding of antibody samples was as described for the standard EIA above. However, after incubation with the antibody samples, the plates were washed and 200 μl per well of HCl (10 mM Stock solution) at pH 2 was added for one hour at 37° C. After three washes the antibody remaining bound to antigen was detected using alkaline phosphatase-conjugated donkey anti-sheep antibody and PNPP as described above. […]

B1: 6H9 whole antibody (sheep monoclonal antibody secreted by hybridoma 6H9) (antibody, V domains shown)
VH: QVQLQESGPSLVKPSQTLSLTCTVSGFSLTKYGVSWVRQAPGKALEWLGGVSSGALTAYNTALQSRLSVTRDTSKSQFSLSLSSVTTEDTAIYYCAKSVNGDSVPYGLDYWSPGLLLTVSS
VL: QDVLTQPSSVSGSLGQRVSITCSGSSSNIGGNAYVGWYQQVPGSAPRLLISATTDRASGIPDRFSGSRSGNTATLTISSLQAEDEADYYCASYQSTYSGVFGSGTRLTVLG
notes: Whole sheep monoclonal antibody
percent antigen binding retained at pH 2.0 relative to pH 7.2 [2]: > 50% | percent antigen binding retained at pH 2.5 relative to pH 7.2 [3]: > 60% | percent antigen binding retained at pH 3.5 relative to pH 7.2 [4]: > 70% | retention of binding in acid-washed EIA (pH 2) relative to non-acid washed EIA [5]: > 50%

B3: 6H9 single-chain Fv (scFv)
scFv: QVQLQESGPSLVKPSQTLSLTCTVSGFSLTKYGVSWVRQAPGKALEWLGGVSSGALTAYNTALQSRLSVTRDTSKSQFSLSLSSVTTEDTAIYYCAKSVNGDSVPYGLDYWSPGLLLTVSSGGGGSGGGGSGGGGSQDVLTQPSSVSGSLGQRVSITCSGSSSNIGGNAYVGWYQQVPGSAPRLLISATTDRASGIPDRFSGSRSGNTATLTISSLQAEDEADYYCASYQSTYSGVFGSGTRLTVLGHHHHHH
notes: VH-(Gly4Ser)3-VL with C-terminal hexa-histidine tag, expressed in E. coli HB 2151; also called 6H9 SFv; sFv
percent antigen binding retained at pH 2.0 relative to pH 7.2 [2]: > 50% | percent antigen binding retained at pH 2.5 relative to pH 7.2 [3]: > 60% | percent antigen binding retained at pH 3.5 relative to pH 7.2 [4]: > 70%

The next lines start with the values.

percent antigen binding retained at pH 2.5 relative to pH 7.2 [1]: < 5%
Molecule: mouse-derived anti-carcinoembryonic antigen single-chain Fv MFE (scFv)

percent antigen binding retained at pH 2.5 relative to pH 7.2 [1]: < 5%
B2: mouse-derived anti-carcinoembryonic antigen whole antibody A5B7 (antibody, from another filing, V domains shown)
VH: EVKLVESGGGLVQPGGSLRLSCATSGFTFTDYYMNWVRQPPGKALEWLGFIGNKANGYTTEYSASVKGRFTISRDKSQSILYLQMNTLRAEDSATYYCTRDRGLRFYFDYWGQGTTLTVSS
VL: QTVLSQSPAILSASPGEKVTMTCRASSSVTYIHWYQQKPGSSPKSWIYATSNLASGVPARFSGSGSGTSYSLTISRVEAEDAATYYCQHWSSKPPTFGGGTKLEIK
